Among the data in patent US20160046944, “APTAMER TO IL-17 AND USE THEREOF” (THE UNIVERSITY OF TOKYO, published 2016) are binding signal values, retold here.

B1: aptamer No. 83 (mixed)
RNA: GGGUAGCCGGAGGAGUCAGUAAUCGGUACCC
modifications: 2'-OMe (M), 2'-F (F), PS (S) as marked; uppercase DNA [2'-OMe: 1-5,7,8,10,11,13,14,17,21-26,28-31; 2'-F: 16,18,20,27; PS: 6,15,19; DNA: 9]
B2: aptamer No. 56 (mixed)
mixed: GGGUAGCCGGAGGAGTCAGTAAUCGGUACCC
modifications: 2'-OMe (M), 2'-F (F), PS (S) as marked; uppercase DNA [2'-OMe: 1,2,3,4,7,8,10,13,14,21,22,23,24,25,26,28; 2'-F: 11,17,18,27; PS: 6,15,19]
B3: aptamer No. 53 (mixed)
mixed: GGGUAGCCGGAGGAGTCAGTAAUCGGUACCC
modifications: 2'-OMe (M), 2'-F (F), PS (S) as marked; uppercase DNA [2'-OMe: 1,2,3,4,7,8,10,13,14,21,22,23,24,25,26,28; 2'-F: 11,17,18,27; PS: 6,19]
B4: aptamer No. 63 (mixed)
mixed: GGGUAGCCGGAGGAGTCAGTAAUCGGUACCC
modifications: 2'-OMe (M), 2'-F (F), PS (S) as marked; uppercase DNA [2'-OMe: 1,2,3,4,5,7,8,10,13,14,21,22,23,24,25,26,28,29,30,31; 2'-F: 11,17,18,27; PS: 6,15,19]
B5: aptamer No. 65 (mixed)
mixed: GGGUAGCCGGAGGAGTCAGTAAUCGGUACCC
modifications: 2'-OMe (M), 2'-F (F), PS (S) as marked; uppercase DNA [2'-OMe: 1-5,7,8,10,13,14,21-31; 2'-F: 11,17,18; PS: 6]
B6: aptamer No. 62 (mixed)
mixed: GGGUAGCCGGAGGAGTCAGTAAUCGGUACCC
modifications: 2'-OMe (M), 2'-F (F), PS (S) as marked; uppercase DNA [2'-OMe: 1,2,3,4,5,7,8,10,13,14,21,22,23,24,25,26,28,29,30,31; 2'-F: 11,17,18,27; PS: 6]
B7: aptamer No. 69 (mixed)
RNA: GGGUAGCCGGAGGAGUCAGUAAUCGGUACCC
modifications: 2'-OMe (M), 2'-F (F), PS (S) as marked; uppercase DNA [2'-OMe: 1-5,7,8,10,13,14,21-26,28-31; 2'-F: 11,16,17,18,20,27; PS: 6]
B8: aptamer No. 87 (mixed)
mixed: GGGUAGCCGGAGGAGTCAGTGAUCGGUACCC
modifications: 2'-OMe (M), 2'-F (F), PS (S) as marked; uppercase DNA [2'-OMe: 1-5,7,8,10,11,13,14,17,22-31; 2'-F: 18; PS: 6,15,19; DNA: 9,16,20]
B9: aptamer No. 52 (mixed)
mixed: GGGUAGCCGGAGGAGTCAGTAAUCGGUACCC
modifications: 2'-OMe (M), 2'-F (F), PS (S) as marked; uppercase DNA [2'-OMe: 1-4,7,8,10,13,14,21-26,28; 2'-F: 11,17,18,27; PS: 6,15]
B10: aptamer No. 92 (mixed)
RNA: GGGUAGCCGGAGGAGUCAGUAAUCGGUACCC
modifications: 2'-OMe (M), 2'-F (F), PS (S) as marked; uppercase DNA [2'-OMe: 1-5,7,8,10,11,13,14,22-26,28-31; 2'-F: 16-18,20,27; PS: 6,15,19; DNA: 9]
B11: aptamer No. 85 (mixed)
RNA: GGGUAGCCGGAGGAGUCAGUAAUCGGUACCC
modifications: 2'-OMe (M), 2'-F (F), PS (S) as marked; uppercase DNA [2'-OMe: 1-5,7,8,10,11,13,14,21-26,28-31; 2'-F: 16,17,18,20,27; PS: 6,15,19; DNA: 9]
B12: aptamer No. 86 (mixed)
mixed: GGGUAGCCGGAGGAGTCAGTGAUCGGUACCC
modifications: 2'-OMe (M), 2'-F (F), PS (S) as marked; uppercase DNA [2'-OMe: 1-5,7,8,10,11,13,14,17,21-31; 2'-F: 18; PS: 6,15,19; DNA: 9,16,20]
B13: aptamer No. 81 (mixed)
mixed: GGGUAGCCGGAGGAGTCAGTAAUCGGUACCC
modifications: 2'-OMe (M), 2'-F (F), PS (S) as marked; uppercase DNA [2'-OMe: 1-5,7,8,10,11,13,14,17,21-31; 2'-F: 18; PS: 6,15,19; DNA: 9,16,20]
B14: aptamer No. 27 (mixed)
mixed: GGGUAGCCGGAGGAGTCAGTAAUCGGTACCC
modifications: 2'-OMe (M), 2'-F (F), PS (S) as marked; uppercase DNA [2'-OMe: 1,2,3,4,7,8,10,13,14,21,23,24,25,26,28,29,30,31; 2'-F: 17; PS: 6]
B15: aptamer No. 28 (mixed)
mixed: GGGUAGCCGGAGGAGTCAGTAAUCGGTACCC
modifications: 2'-OMe (M), 2'-F (F) as marked; uppercase DNA [2'-OMe: 1,2,3,4,7,8,10,13,14,23,24,25,26,28,29,30,31; 2'-F: 17]
B16: aptamer No. 31 (mixed)
mixed: GGGUAGCCGGAGGAGTCAGTAAUCGGTACCC
modifications: 2'-OMe (M), 2'-F (F), PS (S) as marked; uppercase DNA [2'-OMe: 1,2,3,4,7,8,10,13,14,23,24,25,26,29,30,31; 2'-F: 17; PS: 6]
B17: aptamer No. 29 (mixed)
mixed: GGGUAGCCGGAGGAGTCAGTAAUCGGTACCC
modifications: 2'-OMe (M), 2'-F (F) as marked; uppercase DNA [2'-OMe: 1,2,3,4,7,8,10,13,14,21,22,23,24,25,26,28,29,30,31; 2'-F: 17]
B18: aptamer No. 47 (mixed)
mixed: GGGUAGCCGGAGGAGTCAGTAAUCGGUACCC
modifications: 2'-OMe (M), 2'-F (F) as marked; uppercase DNA [2'-OMe: 1-4,7,8,10,13,14,23-26,28; 2'-F: 11,17,18,27]
B19: aptamer No. 33 (mixed)
mixed: GGGUAGCCGGAGGAGTCAGTAAUCGGTACCC
modifications: 2'-OMe (M), 2'-F (F) as marked; uppercase DNA [2'-OMe: 1,2,3,4,7,8,10,13,14,21,23,24,25,26; 2'-F: 17]
B20: aptamer No. 39 (mixed)
mixed: GGGUAGCCGGAGGAGTCAGTAAUCGGTACCC
modifications: 2'-OMe (M), 2'-F (F) as marked; uppercase DNA [2'-OMe: 1-4,7,8,10,13,14,22-26,28-31; 2'-F: 17]
B21: aptamer No. 32 (mixed)
mixed: GGGUAGCCGGAGGAGTCAGTAAUCGGTACCC
modifications: 2'-OMe (M), 2'-F (F) as marked; uppercase DNA [2'-OMe: 1,2,3,4,7,8,10,13,14,21,22,23,24,25,26; 2'-F: 17]
B22: aptamer No. 37 (mixed)
mixed: GGGUAGCCGGAGGAGTCAGTAAUCGGTACCC
modifications: 2'-OMe (M), 2'-F (F) as marked; uppercase DNA; (NI) printed, likely (M) [2'-OMe: 1,2,3,4,7,10,13,14,23,24,25,26,28,29,30,31; 2'-F: 17; 8 printed (NI), likely 2'-OMe]
B23: aptamer No. 49 (mixed)
mixed: GGGUAGCCGGAGGAGTCAGTAAUCGGUACCC
modifications: 2'-OMe (M), 2'-F (F) as marked; uppercase DNA; (PI) printed, likely (M) [2'-OMe: 1-4,7,8,10,14,23-26,28; 2'-F: 17,27; 13 printed (PI), likely 2'-OMe]
B24: aptamer No. 48 (mixed)
mixed: GGGUAGCCGGAGGAGTCAGTAAUCGGUACCC
modifications: 2'-OMe (M), 2'-F (F) as marked; uppercase DNA [2'-OMe: 1-4,7,8,10,13,14,23-26,28; 2'-F: 17,27]

In the first series the target is T1, IL-17 (Homo sapiens, UniProt Q16552 Q16552:24-155).
T1 sequence: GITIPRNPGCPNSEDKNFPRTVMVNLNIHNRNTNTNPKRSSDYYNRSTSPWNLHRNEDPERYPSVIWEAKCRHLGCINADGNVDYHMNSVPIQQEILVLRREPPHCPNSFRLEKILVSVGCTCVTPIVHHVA
Description: SPR; IL-17 150 nM, aptamer 12.5 or 50 nM. Conditions: chain copies: 2. The method, then:
Whether the synthesized aptamers inhibit the binding of IL-17 and IL-17 receptor was evaluated by the surface plasmon resonance method.
For the measurement, BIAcore T100 manufactured by GE Healthcare Bio Sciences was used. […] As an analyte, IL-17 (150 nM) and each aptamer (12.5 or 50 nM) shown by Table 3 were mixed, maintained for 15 min and after that the mixture was flown.
For orientation: SPR reads the build-up and loss of mass on a sensor chip optically.
In the case of B1, the binding signal was 33.5 % IL-17/IL-17R binding remaining.
For the molecule B2, the binding signal was 27 % IL-17/IL-17R binding remaining.
Same read-out and setting: under B3 stands 22.6 % IL-17/IL-17R binding remaining; under B4, 27.1 % IL-17/IL-17R binding remaining; under B5, 20.3 % IL-17/IL-17R binding remaining.
For the molecule B6, the binding signal was 25.9 % IL-17/IL-17R binding remaining.
Consider B7, for which the binding signal was 18.4 % IL-17/IL-17R binding remaining.
With B8, the binding signal is 32.4 % IL-17/IL-17R binding remaining.
With B9, the binding signal is 27.6 % IL-17/IL-17R binding remaining.
The same measure, in the same setting: under B10 stands 31.6 % IL-17/IL-17R binding remaining; under B11, 27.8 % IL-17/IL-17R binding remaining.
As for B12, the binding signal was 35.7 % IL-17/IL-17R binding remaining.
For B13, the binding signal was 34.3 % IL-17/IL-17R binding remaining.

A further series addresses T1, IL-17. Description: SPR; IL-17R-Fc on chip. Conditions: chain copies: 2. The method, then:
Whether aptamers shown by aptamer Nos. 1-49 inhibit the binding of IL-17 and IL-17 receptor was evaluated by the surface plasmon resonance method.
For the measurement, BIAcore2000 manufactured by BIAcore was used. […] As an analyte, IL-17 (100 or 150 nM) and an aptamer (50 or 100 nM) shown by aptamer No. 1-49 were mixed, maintained for 15 min and after that the mixture was flown.
For B14, the binding signal is 13.3 % IL-17/IL-17R binding remaining.
Regarding B15, the binding signal was 13.2 % IL-17/IL-17R binding remaining.
For the molecule B16, the binding signal is 16.2 % IL-17/IL-17R binding remaining.
Same read-out and setting: next, B17: 13.3 % IL-17/IL-17R binding remaining.
Still for that read-out and setting: next, B18: 17.6 % IL-17/IL-17R binding remaining; B19: 15.9 % IL-17/IL-17R binding remaining; B20: 14.8 % IL-17/IL-17R binding remaining.
Same read-out and setting: next, B21: 13.2 % IL-17/IL-17R binding remaining; B22: 15.5 % IL-17/IL-17R binding remaining; B23: 19 % IL-17/IL-17R binding remaining.
In the case of B24, the binding signal was 19.2 % IL-17/IL-17R binding remaining.
